Series [1] has as its target T1, Fpg (formamidopyrimidine-DNA glycosylase) (Escherichia coli, UniProt P05523 2-269).
T1 sequence: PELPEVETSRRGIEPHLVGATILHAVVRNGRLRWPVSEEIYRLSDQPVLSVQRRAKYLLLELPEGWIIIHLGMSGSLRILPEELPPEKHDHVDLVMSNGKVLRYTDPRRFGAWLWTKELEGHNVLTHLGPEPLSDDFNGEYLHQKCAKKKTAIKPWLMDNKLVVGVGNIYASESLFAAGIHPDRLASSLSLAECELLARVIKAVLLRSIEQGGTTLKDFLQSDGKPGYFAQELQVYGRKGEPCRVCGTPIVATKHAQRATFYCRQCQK
Description: MST; MST: 50 mM Tris-HCl pH 7.5, 50 mM KCl, 1 mM EDTA, 1 mM DTT, 7% glycerol, 25 C, 10 min, 0.5 uM DNA; authors call Kd values estimates only. As to conditions: protein: recombinant, tags: none (native form without tags).

In series [2] the target is NEIL1 (endonuclease VIII-like 1) (Homo sapiens, UniProt Q96FI4 2-390). Described as above. Conditions: protein: recombinant.
A further series addresses T2, NTH1 (endonuclease III) (Homo sapiens, UniProt P78549 1-304).
T2 sequence: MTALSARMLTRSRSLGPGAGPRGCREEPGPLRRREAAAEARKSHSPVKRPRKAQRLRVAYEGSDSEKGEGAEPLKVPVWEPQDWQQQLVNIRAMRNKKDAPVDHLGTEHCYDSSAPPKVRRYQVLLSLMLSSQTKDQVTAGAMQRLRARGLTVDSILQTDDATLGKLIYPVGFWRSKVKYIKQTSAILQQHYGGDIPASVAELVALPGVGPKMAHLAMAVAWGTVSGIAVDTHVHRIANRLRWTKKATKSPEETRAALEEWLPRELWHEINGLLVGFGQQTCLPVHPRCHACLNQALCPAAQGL
The series is described as above. As to conditions: protein: recombinant.

Series [3] concerns the target T3, OGG1 (8-oxoguanine-DNA glycosylase) (Homo sapiens, UniProt O15527 1-345). The series is described as above. As to conditions: protein: recombinant.
In another series the target is T4, Nei (endonuclease VIII) (Escherichia coli, UniProt P50465 2-263).
T4 sequence: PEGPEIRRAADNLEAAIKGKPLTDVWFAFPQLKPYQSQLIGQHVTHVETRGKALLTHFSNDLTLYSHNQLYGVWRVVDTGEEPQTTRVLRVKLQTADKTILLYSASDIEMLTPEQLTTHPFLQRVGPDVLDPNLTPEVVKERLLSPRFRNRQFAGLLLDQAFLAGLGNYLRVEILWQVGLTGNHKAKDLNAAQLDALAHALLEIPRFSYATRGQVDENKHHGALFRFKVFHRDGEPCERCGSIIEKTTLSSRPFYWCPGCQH
The series is described as above. As to conditions: protein: recombinant, tags: none (native form without tags).

For series [4], the target named is T1, Fpg (formamidopyrimidine-DNA …). Kind of series: stopped-flow FRET; DNA bending phase before cleavage; MST: 50 mM Tris-HCl pH 7.5, 50 mM KCl, 1 mM EDTA, 1 mM DTT, 7% glycerol, 25 C, 10 min, 0.5 uM DNA; authors call Kd values estimates only. Conditions: protein: recombinant; tags: none (native form without tags); label: 5'-FAM on strand 1; blunt.
The target in series [5] is T3, OGG1 (8-oxoguanine-DNA glycosylase). Described as above. Conditions: protein: recombinant; label: 5'-FAM on strand 1; blunt.
Setting [6] is: label: 5'-FAM on strand 2, blunt.
The mark [7] stands for this setting: label: 5'-FAM, 3'-BHQ1, G-quadruplex.

This is an account of results in publication PMC7734321, “Lesion Recognition and Cleavage of Damage-Containing Quadruplexes and Bulged Structures by DNA Glycosylases”.

NEIL1 (endonuclease VIII-like 1), sequence (Q96FI4 2-390): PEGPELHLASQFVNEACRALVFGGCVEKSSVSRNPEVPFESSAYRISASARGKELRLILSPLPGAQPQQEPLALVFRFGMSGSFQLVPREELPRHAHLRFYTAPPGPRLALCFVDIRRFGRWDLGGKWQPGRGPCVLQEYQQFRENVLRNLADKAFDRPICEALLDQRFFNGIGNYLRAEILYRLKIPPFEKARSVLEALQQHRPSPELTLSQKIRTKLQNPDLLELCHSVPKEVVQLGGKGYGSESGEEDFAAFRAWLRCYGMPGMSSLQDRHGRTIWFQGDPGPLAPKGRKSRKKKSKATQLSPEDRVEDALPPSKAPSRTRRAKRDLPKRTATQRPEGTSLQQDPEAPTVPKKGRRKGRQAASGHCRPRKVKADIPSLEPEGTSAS
T3 sequence (O15527 whole entry): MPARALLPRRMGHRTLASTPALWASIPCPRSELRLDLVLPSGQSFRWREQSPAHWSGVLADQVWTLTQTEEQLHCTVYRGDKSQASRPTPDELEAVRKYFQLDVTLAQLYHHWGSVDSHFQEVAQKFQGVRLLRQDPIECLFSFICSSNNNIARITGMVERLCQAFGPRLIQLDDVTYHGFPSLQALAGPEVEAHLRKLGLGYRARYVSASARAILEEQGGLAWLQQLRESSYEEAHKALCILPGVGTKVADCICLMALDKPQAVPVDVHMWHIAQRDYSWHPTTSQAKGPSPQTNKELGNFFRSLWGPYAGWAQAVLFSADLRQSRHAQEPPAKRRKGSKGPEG

The Kd is the free concentration of one partner at which half of the binding sites on the other are occupied at equilibrium, for simple one-to-one binding. TTAGGGTTAGGGTTAGGGTTAGGGTT (structured_DNA) [Q4]: the Kd in series [1] (G-quadruplex) is 1000 ± 300 nM; in series [2] (G-quadruplex), 3400 ± 500 nM; with NTH1 (endonuclease III) (G-quadruplex) it was 2500 ± 800 nM; in series [3] (G-quadruplex) it was 700 ± 200 nM; in the series with Nei (endonuclease VIII) (G-quadruplex), 900 ± 200 nM.

B1: C/G (dsDNA)
DNA 1: GCTCACGTACAGAGCTG
DNA 2: CAGCTCTGTACGTGAGC
Turning to B1, the Kd is 1600 ± 1100 nM in series [1] (setting [6]); 17000 ± 15000 nM in series [2] (setting [6]); 700 ± 400 nM in the series with NTH1 (endonuclease III) (setting [6]); 1400 ± 500 nM in series [3] (setting [6]); 3100 ± 700 nM with Nei (endonuclease VIII) (setting [6]).

B2: Type I oxoG/C (dsDNA)
DNA 1: GCTCAGGTACAGAGCTG
DNA 2: CAGCTCTGTACCTGAGC
modifications: G6 of strand 1 = 8-oxoguanine, opposite C
Consider B2, for which the binding result in series [4] and in series [5] was “binds” throughout.
Regarding TTAGGGTTAGGGTTAGGGTTAGGGTT (structured_DNA, T14 = thymine glycol) [Q4-Tg], the Kd in series [2] (setting [7]) is 9100 ± 3000 nM; with NTH1 (endonuclease III) (setting [7]), 1300 ± 300 nM; with Nei (endonuclease VIII) (setting [7]), 800 ± 200 nM.
On to TTAGGGTTAGGGTTAGGGTTAGGGTT (structured_DNA, G17 = 8-oxoguanine) [Q4-oxoG], for which the Kd in series [1] (setting [7]) is 1200 ± 400 nM; in series [3] (setting [7]) it was 1200 ± 300 nM.
